Measured values as given in US20250041325A1.

Target: CXCR4 receptor on the surface of RIL-175 murine HCC cells (murine (endogenous on murine RIL-175 HCC cells)) (UniProt P70658)
Assay: cell-based or functional assay

UniProt P70658, sequence (P70658 whole entry): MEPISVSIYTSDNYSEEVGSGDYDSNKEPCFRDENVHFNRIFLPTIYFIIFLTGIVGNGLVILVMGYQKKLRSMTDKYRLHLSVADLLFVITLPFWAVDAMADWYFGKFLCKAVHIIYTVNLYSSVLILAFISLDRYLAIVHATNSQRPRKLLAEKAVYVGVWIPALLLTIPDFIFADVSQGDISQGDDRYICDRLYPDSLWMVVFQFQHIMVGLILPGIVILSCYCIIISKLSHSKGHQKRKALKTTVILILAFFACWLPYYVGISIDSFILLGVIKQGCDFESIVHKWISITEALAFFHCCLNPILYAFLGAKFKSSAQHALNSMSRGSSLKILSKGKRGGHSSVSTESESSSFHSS

With “CTCE-9908 peptide conjugated to DSPE-PEG and displayed on polymer-lipid hybrid mRNA nanoparticles (DSPE-PEG-CTCE; CTCE-mRNA NPs)” the cellular uptake in RIL-175 cells (flow cytometry of EGFP), 5% CTCE-EGFP NPs versus 5% SCP-EGFP NPs (scrambled peptide, SEQ ID NO: 2) was > 15 fold and the mean fluorescence intensity of EGFP in transfected RIL-175 cells (flow cytometry), CTCE-EGFP NPs versus SCP-EGFP NPs was 4.5 fold.
